Experiment [1] deals with T1, CD20 on stable transfectant line 293-CD20 (UniProt P11836 1-297).
T1 construct: whole, on cells; also called CD20 expressing 293 cells
T1 sequence (looked up): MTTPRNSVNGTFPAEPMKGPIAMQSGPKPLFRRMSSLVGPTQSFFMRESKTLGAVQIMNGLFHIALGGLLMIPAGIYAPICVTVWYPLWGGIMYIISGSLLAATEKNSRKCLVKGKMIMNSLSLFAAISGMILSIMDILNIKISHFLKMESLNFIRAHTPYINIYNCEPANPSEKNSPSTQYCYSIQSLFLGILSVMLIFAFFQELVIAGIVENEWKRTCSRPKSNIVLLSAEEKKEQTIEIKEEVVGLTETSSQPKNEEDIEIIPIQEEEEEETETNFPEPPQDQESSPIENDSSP
The experiment can be described thus: flow cytometry on 293-CD20 cells, 200 µl fusion protein, anti-His-PE.

In experiment [2] the target is T1, CD20 on stable transfectant line …. The experiment in a line: flow cytometry on 293-CD20 cells, anti-His-PE or FMC63-PE.
The target in experiment [3] is T2, Human BCMA Protein, Fc Tag (R&D Systems, Cat#193-BC-050) (human, UniProt Q02223 1-54).
T2 construct: Bought; also called Human BCMA-Fc; not shown: Fc tag of the bought protein
T2 sequence (looked up): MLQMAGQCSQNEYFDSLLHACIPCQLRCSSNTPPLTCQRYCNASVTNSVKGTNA
The experiment in a line: ELISA, plate-bound BCMA-Fc, anti-His-HRP.

Experiment [4] addresses T1, CD20 on stable transfectant line …. The experiment in a line: flow cytometry on 293-CD20 cells, 200 µl fusion protein, FMC63-PE.
For experiment [5] the target is unchanged. The experiment in a line: flow cytometry on 293-CD20 cells, FMC63-PE.
For experiment [6], the target named is T3, Human Her2/ErbB2 Protein, Fc Tag (ACRO Biosystems, Cat# HE2-H5253) (human, UniProt P04626 23-652).
T3 construct: Bought; also called Her2-Fc; HER2-hFc; not shown: Fc tag of the bought protein
The experiment can be described thus: ELISA: protein on FMC63-coated plate, Her2-Fc titrated, anti-hIgGFc-HRP.

B1: CD22-D123-Leu16 scFv (VH/VL) (scFv)
chain: DSSKWVFEHPETLYAWEGACVWIPCTYRALDGDLESFILFHNPEYNKNTSKFDGTRLYESTKDGKVPSEQKRVQFLGDKNKACTLSIHPVHLNDSGQLGLRMESKTEKWMERIHLNVSERPFPPHIQLPPEIQESQEVTLTCLLNFSCYGYPIQLQWLLEGVPMRQAAVTSTSLTIKSVFTRSELKFSPQWSHHGKIVTCQLQDADGKFLSNDTVQLNVKHTPKLEIKVTPSDAIVREGDSVTMTCEVSSSNPEYTTVSWLKDGTSLKKQNTFTLNLREVTKDQSGKYCCQVSNDVGPGRSEEVFLQVQYAPEGGGGSGGGGSGGGGSGGGGSEVQLQQSGAELVKPGASVKMSCKASGYTFTSYNMHWVKQTPGQGLEWIGAIYPGNGDTSYNQKFKGKATLTADKSSSTAYMQLSSLTSEDSADYYCARSNYYGSSYWFFDVWGAGTTVTVSSGSTSGGGSGGGSGGGGSSDIVLTQSPAILSASPGEKVTMTCRASSSVNYMDWYQKKPGSSPKPWIYATSNLASGVPARFSGSGSGTSYSLTISRVEAEDAATYYCQQWSFNPPTFGGGTKLEIKHHHHHH
notes: First three domains of CD22 (further mutated) fused to Leu16 scFv, C-terminal His tag; also called construct #65; #65
Take B1: the binding result in experiment [1] is reported as “binds”.

B2: CD19-D1+2-Leu16 scFv (VH/VL) (scFv)
chain: PEEPLVVKVEEGDNAVLQCLKGTSDGPTQQLTWSRESPLKPFLKLSLGLPGLGIHMRPLAIWLFIFNVSQQMGGFYLCQPGPPSEKAWQPGWTVNVEGSGELFRWNVSDLGGLGCGLKNRSSEGPSSPSGKLMSPKLYVWAKDRPEIWEGEPPCLPPRDSLNQSLSQDLTMAPGSTLWLSCGVPPDSVSRGPLSWTHVHPKGPKSLLSLELKDDRPARDMWVMETGLLLPRATAQDAGKYYCHRGNLTMSFHLEITARPGGGGSGGGGSGGGGSGGGGSMAQVKLQESGAELVKPGASVKMSCKASGYTFTSYNMHWVKQTPGQGLEWIGAIYPGNGDTSYNQKFKGKATLTADKSSSTAYMQLSSLTSEDSADYYCARSNYYGSSYWFFDVWGQGTTVTVSSGGGGSGGGGSGGGGSDIELTQSPTILSASPGEKVTMTCRASSSVNYMDWYQKKPGSSPKPWIYATSNLASGVPARFSGSGSGTSYSLTISRVEAEDAATYYCQQWSFNPPTFGGGTKLEIKRAAAHHHHHH
notes: C-terminal His tag; also called construct #83; #83
With B2, in experiment [2], the binding result is recorded as “binds”.

B3: C11D5.3 scFv (VH/VL) (scFv)
scFv: QIQLVQSGPELKKPGETVKISCKASGYTFTDYSINWVKRAPGKGLKWMGWINTETREPAYAYDFRGRFAFSLETSASTAYLQINNLKYEDTATYFCALDYSYAMDYWGQGTSVTVSSGSTSGSGKPGSGEGSTKGDIVLTQSPPSLAMSLGKRATISCRASESVTILGSHLIHWYQQKPGQPPTLLIQLASNVQTGVPARFSGSGSRTDFTLTIDPVEEDDVAVYYCLQSRTIPRTFGGGTKLEIKGGGGSGGGGSGGGGSHHHHHH
notes: His-tagged; also called construct #90; #90
B3: in experiment [3], the binding result is recorded as “binds”.

B4: CD19-ECD-Leu16 scFv (VH/VL) (scFv)
chain: PEEPLVVKVEEGDNAVLQCLKGTSDGPTQQLTWSRESPLKPFLKLSLGLPGLGIHMRPLAIWLFIFNVSQQMGGFYLCQPGPPSEKAWQPGWTVNVEGSGELFRWNVSDLGGLGCGLKNRSSEGPSSPSGKLMSPKLYVWAKDRPEIWEGEPPCLPPRDSLNQSLSQDLTMAPGSTLWLSCGVPPDSVSRGPLSWTHVHPKGPKSLLSLELKDDRPARDMWVMETGLLLPRATAQDAGKYYCHRGNLTMSFHLEITARPVLWHWLLRTGGWKGGGGSGGGGSGGGGSGGGGSEVQLQQSGAELVKPGASVKMSCKASGYTFTSYNMHWVKQTPGQGLEWIGAIYPGNGDTSYNQKFKGKATLTADKSSSTAYMQLSSLTSEDSADYYCARSNYYGSSYWFFDVWGAGTTVTVSSGSTSGGGSGGGSGGGGSSDIVLTQSPAILSASPGEKVTMTCRASSSVNYMDWYQKKPGSSPKPWIYATSNLASGVPARFSGSGSGTSYSLTISRVEAEDAATYYCQQWSFNPPTFGGGTKLEIKHHHHHH
notes: C-terminal His tag; also called construct #63; #63
As to B4, in experiment [4], the binding result is recorded as “binds”.

B5: C11D5.3 scFv (VL/VH) (scFv)
scFv: DIVLTQSPPSLAMSLGKRATISCRASESVTILGSHLIHWYQQKPGQPPTLLIQLASNVQTGVPARFSGSGSRTDFTLTIDPVEEDDVAVYYCLQSRTIPRTFGGGTKLEIKGSTSGSGKPGSGEGSTKGQIQLVQSGPELKKPGETVKISCKASGYTFTDYSINWVKRAPGKGLKWMGWINTETREPAYAYDFRGRFAFSLETSASTAYLQINNLKYEDTATYFCALDYSYAMDYWGQGTSVTVSSGGGGSGGGGSGGGGSHHHHHH
notes: His-tagged; also called construct #89; #89
Regarding B5, the binding result in experiment [3] was “binds”.

B6: CD19-D1+2-Leu16 scFv (VL/VH) (scFv)
chain: PEEPLVVKVEEGDNAVLQCLKGTSDGPTQQLTWSRESPLKPFLKLSLGLPGLGIHMRPLAIWLFIFNVSQQMGGFYLCQPGPPSEKAWQPGWTVNVEGSGELFRWNVSDLGGLGCGLKNRSSEGPSSPSGKLMSPKLYVWAKDRPEIWEGEPPCLPPRDSLNQSLSQDLTMAPGSTLWLSCGVPPDSVSRGPLSWTHVHPKGPKSLLSLELKDDRPARDMWVMETGLLLPRATAQDAGKYYCHRGNLTMSFHLEITARPGGGGSGGGGSGGGGSGGGGSDIELTQSPTILSASPGEKVTMTCRASSSVNYMDWYQKKPGSSPKPWIYATSNLASGVPARFSGSGSGTSYSLTISRVEAEDAATYYCQQWSFNPPTFGGGTKLEIKRGGGGSGGGGSGGGGSMAQVKLQESGAELVKPGASVKMSCKASGYTFTSYNMHWVKQTPGQGLEWIGAIYPGNGDTSYNQKFKGKATLTADKSSSTAYMQLSSLTSEDSADYYCARSNYYGSSYWFFDVWGQGTTVTVSSAAAHHHHHH
notes: C-terminal His tag; also called construct #85; #85
With B6, the binding result in experiment [5] is “no binding (tested: 200 µl fusion protein)”.

B7: CD19-D1+2-C11D5.3 scFv (VL/VH) (scFv)
chain: PEEPLVVKVEEGDNAVLQCLKGTSDGPTQQLTWSRESPLKPFLKLSLGLPGLGIHMRPLAIWLFIFNVSQQMGGFYLCQPGPPSEKAWQPGWTVNVEGSGELFRWNVSDLGGLGCGLKNRSSEGPSSPSGKLMSPKLYVWAKDRPEIWEGEPPCLPPRDSLNQSLSQDLTMAPGSTLWLSCGVPPDSVSRGPLSWTHVHPKGPKSLLSLELKDDRPARDMWVMETGLLLPRATAQDAGKYYCHRGNLTMSFHLEITARPGGGGSGGGGSGGGGSGGGGSDIVLTQSPPSLAMSLGKRATISCRASESVTILGSHLIHWYQQKPGQPPTLLIQLASNVQTGVPARFSGSGSRTDFTLTIDPVEEDDVAVYYCLQSRTIPRTFGGGTKLEIKGSTSGSGKPGSGEGSTKGQIQLVQSGPELKKPGETVKISCKASGYTFTDYSINWVKRAPGKGLKWMGWINTETREPAYAYDFRGRFAFSLETSASTAYLQINNLKYEDTATYFCALDYSYAMDYWGQGTSVTVSSGGGGSGGGGSGGGGSHHHHHH
notes: His-tagged; also called construct #91; #91
Regarding B7, the binding result in experiment [3] was “binds”.

B8: purified CD19 protein control (other, UniProt P15391 20-291, looked up)
chain: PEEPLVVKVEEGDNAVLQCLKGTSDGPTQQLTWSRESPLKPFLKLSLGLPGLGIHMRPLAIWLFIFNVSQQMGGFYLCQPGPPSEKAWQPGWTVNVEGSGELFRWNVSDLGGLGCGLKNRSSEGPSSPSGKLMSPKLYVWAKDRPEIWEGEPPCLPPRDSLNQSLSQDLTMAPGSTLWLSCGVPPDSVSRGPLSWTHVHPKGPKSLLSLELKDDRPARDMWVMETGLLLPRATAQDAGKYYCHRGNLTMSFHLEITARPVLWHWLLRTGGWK
Turning to B8, the binding result in experiment [6] was “no binding”.

B9: CD19-D1+2-C11D5.3 scFv (VH/VL) (scFv)
chain: PEEPLVVKVEEGDNAVLQCLKGTSDGPTQQLTWSRESPLKPFLKLSLGLPGLGIHMRPLAIWLFIFNVSQQMGGFYLCQPGPPSEKAWQPGWTVNVEGSGELFRWNVSDLGGLGCGLKNRSSEGPSSPSGKLMSPKLYVWAKDRPEIWEGEPPCLPPRDSLNQSLSQDLTMAPGSTLWLSCGVPPDSVSRGPLSWTHVHPKGPKSLLSLELKDDRPARDMWVMETGLLLPRATAQDAGKYYCHRGNLTMSFHLEITARPGGGGSGGGGSGGGGSGGGGSQIQLVQSGPELKKPGETVKISCKASGYTFTDYSINWVKRAPGKGLKWMGWINTETREPAYAYDFRGRFAFSLETSASTAYLQINNLKYEDTATYFCALDYSYAMDYWGQGTSVTVSSGSTSGSGKPGSGEGSTKGDIVLTQSPPSLAMSLGKRATISCRASESVTILGSHLIHWYQQKPGQPPTLLIQLASNVQTGVPARFSGSGSRTDFTLTIDPVEEDDVAVYYCLQSRTIPRTFGGGTKLEIKGGGGSGGGGSGGGGSHHHHHH
notes: His-tagged; also called construct #92; #92
Take B9: in experiment [3], the binding result is on record as “binds”.

These data come from US10508143 (ALETA BIOTHERAPEUTICS, dated 2019).
